Measured values taken from patent publication US12319739 (F STAR DELTA, dated 2025).

Assays:
[1] = target: T1, mouse CD137 ligand on DO11.10 cells (mouse, UniProt P41274 1-309); assay: flow cytometry, detected with anti mouse Fc antibody
T1 construct: whole, on cells
T1 sequence (looked up): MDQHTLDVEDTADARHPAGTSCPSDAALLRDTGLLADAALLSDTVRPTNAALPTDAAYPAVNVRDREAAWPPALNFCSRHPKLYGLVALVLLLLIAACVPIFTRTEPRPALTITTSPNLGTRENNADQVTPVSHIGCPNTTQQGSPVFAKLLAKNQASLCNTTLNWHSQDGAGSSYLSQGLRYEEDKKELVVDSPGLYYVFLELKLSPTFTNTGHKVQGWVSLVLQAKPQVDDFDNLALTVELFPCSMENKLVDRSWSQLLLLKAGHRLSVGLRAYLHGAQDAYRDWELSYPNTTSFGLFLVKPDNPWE
Protocol: Cells were incubated with the CD137 antigens for 1 hour, and then a fluorescently labelled anti mouse Fc fragment antibody was used to detect cell binding.

[2] = target: T2, human OX40 (human, UniProt P43489 29-216); assay: SPR, receptor amine-coupled ~1000 RU
T2 sequence (looked up): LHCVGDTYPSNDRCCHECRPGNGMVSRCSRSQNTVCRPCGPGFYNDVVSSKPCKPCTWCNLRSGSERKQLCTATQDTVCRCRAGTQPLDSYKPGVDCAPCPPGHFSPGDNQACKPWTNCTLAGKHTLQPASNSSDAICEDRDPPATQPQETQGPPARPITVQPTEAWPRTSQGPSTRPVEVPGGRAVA
Protocol: (§1) The specificity of the anti-human CD137 Fcabs for human CD137 compared to other related TNFSFR family members was tested. 8 of the Fcabs were tested in mock mAb^2 (HelD1.3) format and measured by SPR in a Biacore T200 (GE Healthcare) by testing for binding to other human TNFRSF receptors: CD40, OX40 and GITR. Amine coupling (amine coupling kit, GE Healthcare, BR-1000-50) was used to coat human CD40, GITR and OX40 to approximately 1000 RU in Biacore CM5 chips (GE Healthcare, cat no 29149603). […] The chip was regenerated by injection of 10 mM glycine pH 2.5 for 12 s at 30 µl/min. Antibodies specific to the different TNFRSF members were used as positive controls to verify Biacore chip coating. Data was double reference subtracted and analysed using BIAevaluation 3.2 software.

[3] = target: T3, human GITR (human, UniProt Q9Y5U5 26-161, limits assumed); assay: SPR, receptor amine-coupled ~1000 RU
T3 sequence (looked up): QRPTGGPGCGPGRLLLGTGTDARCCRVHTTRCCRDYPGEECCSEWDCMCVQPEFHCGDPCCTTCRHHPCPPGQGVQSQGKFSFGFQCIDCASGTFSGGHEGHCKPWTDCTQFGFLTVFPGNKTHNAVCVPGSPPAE
Protocol: as §1

[4] = target: human CD40 (human, UniProt P25942 21-193); assay: SPR, receptor amine-coupled ~1000 RU
Protocol: as §1

[5] = target: human CD137 expressed on cells (human, UniProt Q07011 24-255); assay: cell-based or functional assay
[6] = target: T4, hCD137-Avi-His (human, UniProt Q07011 24-186, single biotin on the Avi tag in the biotinylated form); assay: SPR, mAb2 captured by anti-human Fab, antigen in solution
T4 construct: Monomer; also called human monomeric CD137; human CD137-Avi-His
Protocol: (§2) Each mAb^2 was captured to approximately 150 RU by injecting a 3 µg/ml solution of mAb^2 diluted in HBS-EP+buffer (GE Healthcare #BR1006-69) for 60 seconds at 30 µl/min. Then different concentrations of human, cyno or mouse CD137 antigen (unbiotinylated human, cyno or mouse CD137-mFc-Avi or human CD137-Avi-His) in HBS-EP+buffer were flowed over the chip for 3 min at 60 µl/min and then allowed to dissociate for 10 minutes. After each antigen concentration the chip was regenerated by injecting 10 mM glycine pH 2.1 at a flow rate of 30 µl/min for 30 seconds. Buffer HBS-EP+ was injected before the highest concentration of antigen and after the lowest concentration of antigen for reference subtraction, and one of the concentrations at random was repeated twice. The binding kinetics were fit with a 1:1 Langmuir model to generate equilibrium binding constants (K_D) for each sample. Data analysis was performed with BiaEvaluation software version 3.2.

[7] = target: T5, cCD137-mFc-Avi (cynomolgus; mouse, one biotin on each Avi tag in the biotinylated form); assay: as above
T5 construct: also called cynomolgus dimeric CD137; cyno CD137-mFc-Avi
T5 chain: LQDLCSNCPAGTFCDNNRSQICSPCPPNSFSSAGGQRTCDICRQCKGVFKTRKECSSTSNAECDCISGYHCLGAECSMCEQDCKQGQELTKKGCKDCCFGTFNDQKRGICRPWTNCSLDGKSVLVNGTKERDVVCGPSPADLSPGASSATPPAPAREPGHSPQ
Protocol: as §2

[8] = target: T6, hCD137-mFc-Avi (human; mouse, UniProt Q07011 24-186, one biotin on each Avi tag in the biotinylated form); assay: as above
T6 construct: also called human dimeric CD137; human CD137-mFc-Avi
Protocol: as §2

[9] = target: mouse CD137 expressed on cells (mouse, UniProt P20334 24-256); assay: cell-based or functional assay
[10] = target: T7, mouse GITR (mouse, UniProt O35714 20-153, limits assumed, chemically biotinylated (EZ-Link Sulfo-NHS-SS-Biotin)); assay: BLI (Octet), biotinylated receptor on streptavidin sensors
T7 sequence (looked up): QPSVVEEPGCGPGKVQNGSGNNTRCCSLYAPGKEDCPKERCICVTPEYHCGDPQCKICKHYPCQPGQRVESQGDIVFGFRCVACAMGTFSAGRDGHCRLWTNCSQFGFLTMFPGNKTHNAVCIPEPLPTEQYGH
Protocol: (§3) The specificity of the anti-mouse CD137 Fcabs for mouse CD137 were tested in HeID1.3 "mock" mAb² format and measured by BLI in an Octet QKe system by testing for binding of the Fcabs to other mouse TNFRSF receptors (CD40, OX40, GITR). Streptavidin biosensors (PALL ForteBio 18-5021) to coat 10 ng/μl mouse CD40, GITR, OX40 receptors (all obtained from R&D Systems and biotinylated using an EZ-Link Sulfo-NHS-SS-Biotin kit from Thermoscientific #21328). Anti-mouse CD137 Fcabs in mock mAb² format were diluted 1:1 in kinetic buffer (PALL 18-1092) to a final concentration of at least 1 μM. Antigen-coated sensors were dipped into the mAb² solutions for 180 seconds followed by 180 seconds in 1× kinetic buffer. Antibodies for each of the TNFRSF receptors were used as positive controls.

[11] = target: mouse CD40 (mouse, UniProt P27512 24-193, limits assumed, chemically biotinylated (EZ-Link Sulfo-NHS-SS-Biotin)); assay: as above
Protocol: as §3

mouse CD40, sequence (P27512 24-193 limits assumed): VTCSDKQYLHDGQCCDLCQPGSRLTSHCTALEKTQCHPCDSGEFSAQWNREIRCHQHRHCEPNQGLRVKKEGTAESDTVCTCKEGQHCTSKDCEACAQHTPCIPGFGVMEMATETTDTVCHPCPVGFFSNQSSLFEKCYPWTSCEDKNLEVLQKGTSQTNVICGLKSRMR
human CD40, sequence (P25942 21-193 limits assumed): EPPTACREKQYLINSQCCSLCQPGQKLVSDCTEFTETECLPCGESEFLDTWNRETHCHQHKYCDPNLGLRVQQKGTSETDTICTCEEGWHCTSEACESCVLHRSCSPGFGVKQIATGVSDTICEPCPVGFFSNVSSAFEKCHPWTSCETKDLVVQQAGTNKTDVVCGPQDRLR
T6 sequence (Q07011 24-186): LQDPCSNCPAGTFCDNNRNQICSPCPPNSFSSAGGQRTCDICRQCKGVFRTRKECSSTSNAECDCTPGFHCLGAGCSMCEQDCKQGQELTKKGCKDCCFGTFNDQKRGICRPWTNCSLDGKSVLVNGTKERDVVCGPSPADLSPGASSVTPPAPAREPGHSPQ
T4 sequence (Q07011 24-186): as above
human CD137 expressed on cells, sequence (Q07011 24-255): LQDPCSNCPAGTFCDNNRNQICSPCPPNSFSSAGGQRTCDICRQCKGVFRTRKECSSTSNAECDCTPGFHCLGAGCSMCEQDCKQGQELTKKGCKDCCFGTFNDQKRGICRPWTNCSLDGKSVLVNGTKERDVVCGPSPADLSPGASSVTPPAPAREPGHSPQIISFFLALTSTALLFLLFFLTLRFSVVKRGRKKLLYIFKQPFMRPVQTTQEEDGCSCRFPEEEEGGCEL

B1: mCD137-mFc-Avi (Fc fusion, not shown: a dimerising Fc or GST; small tags and cut ends)
chain: VQNSCDNCQPGTFCRKYNPVCKSCPPSTFSSIGGQPNCNICRVCAGYFRFKKFCSSTHNAECECIEGFHCLGPQCTRCEKDCRPGQELTKQGCKTCSLGTFNDQNGTGVCRPWTNCSLDGRSVLKTGTTEKDVVCGPPVVSFSPSTTISVTPEGGPGGHSLQVL
modifications: one biotin on each Avi tag in the biotinylated form
notes: also called mouse dimeric CD137; mouse CD137-mFc-Avi
binding result [1]: binds

B2: FS22-172-003/HelD1.3 (bispecific antibody, human IgG1, kappa, L234A L235A)
heavy: QVQLQESGPGLVRPSQTLSLTCTVSGSTFSGYGVNWVRQPPGRGLEWIGMIWGDGNTDYNSALKSRVTMLVDTSKNQFSLRLSSVTAADTAVYYCARERDYRLDYWGQGSLVTVSSASTKGPSVFPLAPSSKSTSGGTAALGCLVKDYFPEPVTVSWNSGALTSGVHTFPAVLQSSGLYSLSSVVTVPSSSLGTQTYICNVNHKPSNTKVDKKVEPKSCDKTHTCPPCPAPEAAGGPSVFLFPPKPKDTLMISRTPEVTCVVVDVSHEDPEVKFNWYVDGVEVHNAKTKPREEQYNSTYRVVSVLTVLHQDWLNGKEYKCKVSNKALPAPIEKTISKAKGQPREPQVYTLPPSRDELPYIIPPYNQVSLTCLVKGFYPSDIAVEWESNGQPENNYKTTPPVLDSDGSFFLYSKLTVGADRWLEGNVFSCSVMHEALHNHYTQKSLSLSPG
light: DIQMTQSPASLSASVGETVTITCRASGNIHNYLAWYQQKQGKSPQLLVYNAKTLADGVPSRFSGSGSGTQYSLKINSLQPEDFGSYYCQHFWSTPRTFGGGTKLEIKRTVAAPSVFIFPPSDEQLKSGTASVVCLLNNFYPREAKVQWKVDNALQSGNSQESVTEQDSKDSTYSLSSTLTLSKADYEKHKVYACEVTHQGLSSPVTKSFNRGEC
notes: IgG1
binding result [2]: no binding (tested: 1 µM)
binding result [3]: no binding (tested: 1 µM)
binding result [4]: no binding (tested: 1 µM)
NF-κB luciferase reporter EC50, HEK.FRT.luc.hCD137 cells, crosslinked with Protein L (+XL) [5]: 32.6 nM
human monomeric CD137 KD fold difference relative to human dimeric KD [6]: > 200 fold
Kd [7]: 1.3 nM
Kd [8]: 1.5 nM

B3: FS22m-063 in mock mAb^2 (HelD1.3) format (bispecific antibody, human IgG1, kappa, L234A L235A)
heavy: QVQLQESGPGLVRPSQTLSLTCTVSGSTFSGYGVNWVRQPPGRGLEWIGMIWGDGNTDYNSALKSRVTMLVDTSKNQFSLRLSSVTAADTAVYYCARERDYRLDYWGQGSLVTVSSASTKGPSVFPLAPSSKSTSGGTAALGCLVKDYFPEPVTVSWNSGALTSGVHTFPAVLQSSGLYSLSSVVTVPSSSLGTQTYICNVNHKPSNTKVDKKVEPKSCDKTHTCPPCPAPEAAGGPSVFLFPPKPKDTLMISRTPEVTCVVVDVSHEDPEVKFNWYVDGVEVHNAKTKPREEQYNSTYRVVSVLTVLHQDWLNGKEYKCKVSNKALPAPIEKTISKAKGQPREPQVYTLPPSRDEPYWSYVSLTCLVKGFYPSDIAVEWESNGQPENNYKTTPPVLDSDGSFFLYSKLTVMNYRWELGNVFSCSVMHEALHNHYTQKSLSLSPG
light: DIQMTQSPASLSASVGETVTITCRASGNIHNYLAWYQQKQGKSPQLLVYNAKTLADGVPSRFSGSGSGTQYSLKINSLQPEDFGSYYCQHFWSTPRTFGGGTKLEIKRTVAAPSVFIFPPSDEQLKSGTASVVCLLNNFYPREAKVQWKVDNALQSGNSQESVTEQDSKDSTYSLSSTLTLSKADYEKHKVYACEVTHQGLSSPVTKSFNRGEC
notes: The entries are those of FS22m-063-AA/HelD1.3 (with LALA); also called FS22m-063-AA/HelD1.3; FS22m-063/HeID1.3
NF-κB luciferase reporter EC50, HEK.FRT.luc.mCD137 cells, crosslinked with Protein L [9]: 1.44 nM
NF-κB luciferase reporter, fold-change in activity upon Protein L crosslinking [9]: 27 fold
binding result [10]: no binding (tested: at least 1 µM)
binding result [11]: no binding (tested: at least 1 µM)
